Laboratory results from patent publication US20230416361A1 (MIROBIO, published 2023).

Assays:
[1] = target: T1, cyno CD200RLa full length construct on cells (cynomolgus, UniProt A0A2K5W6R0 30-275); test: flow cytometry
T1 construct: whole, on cells; also called cynomolgus CD200RLa expressed on cells
T1 sequence: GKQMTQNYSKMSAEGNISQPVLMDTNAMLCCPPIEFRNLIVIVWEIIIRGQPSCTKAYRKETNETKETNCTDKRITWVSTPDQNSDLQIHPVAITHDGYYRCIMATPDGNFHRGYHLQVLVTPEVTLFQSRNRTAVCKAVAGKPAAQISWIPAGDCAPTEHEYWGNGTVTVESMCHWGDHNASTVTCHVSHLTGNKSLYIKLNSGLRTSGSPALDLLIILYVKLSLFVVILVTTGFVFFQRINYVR
Experimental: (§1) The binding of CD200R antibodies to human and cyno CD200R and CD200RLa constructs was assessed by flow cytometry of transiently transfected cells. CD200RLa has a charged transmembrane (TM) that is not expected to express well in the absence of appropriate binding partners. Therefore, in addition to the full length CD200RLa constructs, chimeric constructs were used consisting of the CD200RLa extracellular domain fused to mouse CD80 transmembrane and intracellular tail to enable cell surface expression.
(§2) HEK293T cells were plated out at 1 million cells per well in a 6 well plate the day before transfection. The following day cells were transfected with CD200R constructs using 2.5 μg plasmid DNA (a pcDNA3.4 vector containing the CD200R construct sequence) and 10 μl Lipofectamine 2000 (mixed in 200 μl Optimem for 5 minutes then added dropwise to cells). 48 hours after transfection, cells were collected by vigorous pipetting in cold PBS and 50,000 cells pelleted per well in 96 well U bottom plates.
Cells were then washed and stained for 30 minutes with a secondary staining mix containing a live/dead marker (Near IR LD, Biolegend cat #423106) and APC anti-hIgG (clone QA19A42, Biolegend cat #366906) or AF647 anti-mIgG1 (clone RMG1-1, cat #406618). As a control, cells were separately stained with the commercial anti-CD200R clone OX108 directly labelled with AF647 (Biolegend cat #329308). […]

[2] = target: T2, human CD200RLa full length construct on HEK293T cells (human, UniProt Q6Q8B3 24-271); test: flow cytometry on transiently transfected HEK293T cells
T2 construct: whole, on cells; also called CD200R1L
T2 sequence (looked up): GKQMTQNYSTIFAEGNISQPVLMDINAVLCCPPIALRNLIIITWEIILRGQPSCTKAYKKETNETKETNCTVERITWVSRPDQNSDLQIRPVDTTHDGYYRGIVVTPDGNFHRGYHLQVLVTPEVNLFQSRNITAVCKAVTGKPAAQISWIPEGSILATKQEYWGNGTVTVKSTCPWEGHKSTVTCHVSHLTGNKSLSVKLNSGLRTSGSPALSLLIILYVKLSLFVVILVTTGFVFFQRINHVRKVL
Experimental: as §1, §2
(§3) Cells were then washed and stained for 30 minutes with a secondary staining mix containing a live/dead marker (Near IR LD, Biolegend cat #423106) and APC anti-hIgG (clone QA19A42, Biolegend cat #366906) or AF647 anti-mIgG1 (clone RMG1-1, cat #406618). As a control, cells were separately stained with the commercial anti-CD200R clone OX108 directly labelled with AF647 (Biolegend cat #329308). Finally, cells were washed and resuspended in FACS buffer for acquisition on a FACS Celesta flow cytometer.

[3] = target: T3, human CD200RLa extracellular domain fused to mouse CD80 transmembrane and intracellular tail, on HEK293T cells (human; mouse, UniProt Q6Q8B3 24-239; Q00609 247-306, limits assumed); test: as above
T3 construct: extracellular domain;domain: transmembrane and intracellular tail; also called human CD200RLa chimeric construct
T3 sequence (looked up): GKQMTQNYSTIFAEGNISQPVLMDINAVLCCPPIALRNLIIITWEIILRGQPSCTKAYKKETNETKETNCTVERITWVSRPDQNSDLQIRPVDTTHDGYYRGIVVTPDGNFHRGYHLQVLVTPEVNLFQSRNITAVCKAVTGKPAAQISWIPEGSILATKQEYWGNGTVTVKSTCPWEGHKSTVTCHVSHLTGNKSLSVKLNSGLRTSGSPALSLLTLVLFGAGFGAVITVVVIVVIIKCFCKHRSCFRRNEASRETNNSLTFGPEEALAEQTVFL
Experimental: as §1, §2, §3

[4] = target: T4, monomeric soluble human CD200R extracellular domain (human, UniProt Q8TD46 29-265); test: SPR, captured antibody, soluble monomeric receptor injected, single cycle kinetics, 37 C
T4 construct: extracellular domain; also called hCD200R; monomeric CD200R protein
T4 sequence (looked up): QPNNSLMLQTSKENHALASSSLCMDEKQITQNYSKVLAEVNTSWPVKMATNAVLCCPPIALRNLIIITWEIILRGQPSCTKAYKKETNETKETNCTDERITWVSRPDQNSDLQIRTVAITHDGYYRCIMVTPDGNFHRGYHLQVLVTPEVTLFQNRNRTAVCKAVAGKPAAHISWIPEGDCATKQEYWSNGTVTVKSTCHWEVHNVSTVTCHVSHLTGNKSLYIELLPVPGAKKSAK
Experimental: (§4) The binding affinity and kinetics of the CD200R antibodies of the present disclosure to human or cynomolgus CD200R were determined by surface plasmon resonance (SPR) using the Biacore T200 (GE Healthcare). Mouse antibody capture kit (GE Healthcare) was used to coat a Series S CM5 Sensor Chip (GE Healthcare) with polyclonal anti-mouse IgG.
(§5) Anti-CD200R antibody was captured onto the biosensor surface and a negative control antibody (clone Mopc21; Biolegend) captured in the reference channel. Various concentrations of monomeric soluble human CD200R extracellular domain, soluble cynomolgus macaque CD200R1 extracellular domain or soluble cynomolgus macaque CD200RLa (a highly homologous activating receptor) were injected over the immobilized antibodies in the buffer 10 mM Hepes, 150 mM NaCl, 0.005% v/v Surfactant P20, pH 7.4 (HBS-P) at 37° C., in a single cycle kinetics analysis. Association and dissociation rates were fitted using BiaEvaluation Software (GE Healthcare) after reference and blank subtractions, and dissociation constants were calculated (Table 2).

[5] = target: T5, soluble cynomolgus macaque CD200R1 extracellular domain (cynomolgus macaque, UniProt G7NZT0 29-266); test: as above
T5 construct: extracellular domain; also called Cynomolgus CD200R
T5 sequence: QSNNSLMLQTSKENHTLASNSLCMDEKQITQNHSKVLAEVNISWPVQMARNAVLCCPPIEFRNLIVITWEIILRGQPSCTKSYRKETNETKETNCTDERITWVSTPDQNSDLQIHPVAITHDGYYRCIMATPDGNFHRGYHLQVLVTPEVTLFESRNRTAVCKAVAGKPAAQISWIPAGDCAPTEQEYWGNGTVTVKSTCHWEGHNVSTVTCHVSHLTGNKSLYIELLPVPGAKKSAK
Experimental: as §4, §5

B1: anti-CD200R antibody clone 21.3.1 (mIgG1k isotype) (antibody, V domains shown)
VH: QVQLQQPGSELVRPGASVKLSCKASGHTFTSYWMHWVKQRPGQGLEWIGNIYPGSGSINYDEKFKSKAKLTVDTSSRTAYMQLSSLTSEDSAVYYCLTMTGTSWGQGTLVTVSA
VL: DVQMIQSPSSLSASLGDIVTMTCQASQGTPINLHWFQQKPGKAPKLLISGASNLEDGVPSRFSGSRYGTAFTLTISSLEDEDMATYFCLQFTYIPWTFGGGTKLEIKR
notes: Murine hybridoma antibody, IgG1 kappa
binding result [1]: no binding | binding result [2]: no binding (tested: 10 ug/ml) | binding result [3]: no binding (tested: 10 ug/ml) | Kd [4]: 0.3 nM | Kd [5]: 0.00825 nM
